Results taken from PMC5206748, “Disruption of cell adhesion by an antibody targeting the cell-adhesive intermediate (X-dimer) of human P-cadherin” (Scientific Reports, 2017).
Substitutions are numbered along the chain they refer to. In names and notes the source's numbering stands. Values belong to the binder of their own block, whether it stands above or below them.

What was measured:
Details in all cases: both partners purified
[1] = target: T1, human P-cadherin MEC12 K14E (additional Met + residues 1-213) (Homo sapiens, point mutant); experiment: ITC; iTC200; antibody in the cell (15-30 μM), P-cadherin construct in the syringe (150-300 μM); 15 °C; one-site binding model
T1 construct: human P-cadherin, residues 1-213 with K14E; numbers count on: the mature protein; also called monomer construct; source: E. coli Rosetta2 (DE3), purified (Ni-NTA, SUMO tag cleaved with Ulp1, SEC)
T1 sequence (chain, as listed by the source point mutant | K14E K14E): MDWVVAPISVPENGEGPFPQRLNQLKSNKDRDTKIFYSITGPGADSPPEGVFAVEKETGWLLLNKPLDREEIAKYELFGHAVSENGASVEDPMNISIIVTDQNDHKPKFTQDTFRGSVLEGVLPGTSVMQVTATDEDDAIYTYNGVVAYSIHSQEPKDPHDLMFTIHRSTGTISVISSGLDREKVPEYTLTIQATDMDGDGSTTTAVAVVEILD

[2] = target: T2, human P-cadherin MEC12 (additional Met + residues 1-213) (Homo sapiens); experiment: as above
T2 construct: numbers count on: the mature protein; also called X-dimer construct; source: E. coli Rosetta2 (DE3), purified (Ni-NTA, SUMO tag cleaved with Ulp1, SEC)

[3] = target: T3, human P-cadherin EC12 K14E (residues 1-213) (Homo sapiens, UniProt P22223, point mutant); experiment: as above
T3 construct: human P-cadherin, residues 1-213 with K14E; numbers count on: the mature protein; also called strand-swap dimer construct; source: E. coli Rosetta2 (DE3), purified (Ni-NTA, SUMO tag cleaved with Ulp1, SEC)

[4] = target: T4, human P-cadherin MEC1 (additional Met + residues 1-129) (Homo sapiens); experiment: SPR; Biacore T200; MEC1 immobilised on a CM5 chip by amine coupling (~250 RU); scFv as analyte, 0.49-62.5 nM; 25 °C; 10 mM HEPES, 150 mM NaCl, 3 mM CaCl2, pH 7.5, 0.05% Tween-20; global fitting
T4 construct: numbers count on: the mature protein; source: E. coli Rosetta2 (DE3), purified (Ni-NTA, SUMO tag cleaved with Ulp1, SEC)
T4 chain: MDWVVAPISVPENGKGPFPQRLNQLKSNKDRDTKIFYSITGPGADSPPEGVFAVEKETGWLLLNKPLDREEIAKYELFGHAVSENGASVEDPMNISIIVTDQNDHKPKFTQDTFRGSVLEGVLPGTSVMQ

[5] = target: T5, human E-cadherin EC12 (Homo sapiens, UniProt P12830); experiment: SEC; the solution left in the ITC cell (antibody 25 μM titrated with human E-cadherin EC12 250 μM at 30 °C) injected on Superose 12 10/300 GL; 0.5 mL/min; 25 °C; 10 mM HEPES, 150 mM NaCl, 3 mM CaCl2, pH 7.5
T5 construct: human E-cadherin, domains EC1-EC2; also called E-cad EC12; source: E. coli Rosetta2 (DE3), purified (Ni-NTA, SUMO tag cleaved with Ulp1, SEC)

[6] = target: T6, human E-cadherin EC12 (Homo sapiens, UniProt P12830); experiment: ITC + SEC; antibodies (25 μM) in the cell titrated with human E-cadherin EC12 (250 μM) in the syringe, 30 °C; the solution left in the cell was then run on Superose 12 in 10 mM HEPES, 150 mM NaCl, 3 mM CaCl2, pH 7.5
T6 construct: E-cadherin (cadherin-1), human, extracellular domains EC1-EC2; source: E. coli Rosetta2 (DE3), SUMO fusion, Ni-NTA, SUMO cleaved with Ulp1, SEC

[7] = target: T7, human P-cadherin MEC1 (Homo sapiens, UniProt P22223); experiment: SPR; MEC1 immobilised on a CM5 chip by amine coupling (~250 RU); antibodies as analyte 0.49-62.5 nM; 25 °C; 10 mM HEPES, 150 mM NaCl, 3 mM CaCl2, pH 7.5, 0.05% Tween-20; global fitting
T7 construct: additional Met before the N-terminus; P-cadherin (cadherin-3), human, extracellular domain EC1; source: E. coli Rosetta2 (DE3), SUMO fusion, Ni-NTA, SUMO cleaved with Ulp1, SEC

[8] = target: T1, human P-cadherin MEC12 K14E (additional …); experiment: SPR; scFv (100 nM) captured on anti-His6-tag antibody immobilised on a CM5 chip; P-cadherin construct as analyte (1.25-20 nM strand-swap dimer, 6.25-100 nM monomer); global fitting; the paper puts the lower KD for the strand-swap dimer down to an avidity effect
[9] = target: T3, human P-cadherin EC12 K14E (residues …); experiment: as above
[10] = target: T8, human P-cadherin MEC12 (human, UniProt P22223); experiment: ITC; antibodies (15-30 μM) in the cell titrated with cadherins (150-300 μM); 15 °C; one-site binding model
T8 construct: additional Met at the N-terminus of EC12; P-cadherin (cadherin-3), human, extracellular domains EC1-EC2; Fast exchange between monomer and X-dimer; also called X-dimer construct; source: E. coli Rosetta2 (DE3), SUMO fusion, Ni-NTA, SUMO cleaved with Ulp1, SEC

B4: TSP7 S77R single-chain Fv (scFv, V domains shown)
VH: QVQLQESGPELVKPGASVKMSCKASGYSFTAYNMHWVKQSHGKSLEWIGFIDPYSGIITYNQTFKGKATLTVDKSSRTAYMQLNSLTSEDSAVYYCARRGYYDGGFDYWGQGTTLTVSS
VL: DIQMTQTTSSLSASLGDRVTISCRASQDITNYLNWYQQKPDGTVKLLIYYTSRLHSGVPSRFSGSGSGTDYSLTISNLEQEDIATYFCQQDSKHPRTFGGGTKLEIK
notes: as the VH of Dm1 (TSP7, PDB 5JYL) with S77R; flexible (Gly4-Ser)3 peptide linker between VH and VL; as the VL of Dm1 (TSP7, PDB 5JYL); source: purified to homogeneity in a soluble monomeric form; not shown: His6, C-terminal, kept
Kd [8]: 71 nM
koff [8]: 0.032 s⁻¹
kon [8]: 450000 M⁻¹ s⁻¹
Kd [9]: 0.53 nM
koff [9]: 0.00039 s⁻¹
kon [9]: 730000 M⁻¹ s⁻¹

B5: TSP7 (anti-human P-cadherin antibody, scFv format) (scFv, V domains shown)
VH: B4 VH with R77S
VL: B4 VL
notes: VH of TSP7 (antibody from mice immunised with human P-cadherin EC1-EC5); flexible (Gly4-Ser)3 peptide linker; VL of TSP7; Construct pelB-VH-GS-linker-VL-His6 in pRA2; also called TSP7 WT; not shown: His6, C-terminal, kept
stoichiometry N [10]: 1.5
binding result [6]: no binding
Kd [7]: ~10 nM

Other lines, results leading:

stoichiometry N [1]: 0.61
stoichiometry N [2]: 0.71
stoichiometry N [3]: 0.61
Kd [4]: 14 nM
koff [4]: 0.0039 s⁻¹
kon [4]: 280000 M⁻¹ s⁻¹
binding result [5]: no binding
B1: TSP11 single-chain Fv (anti-human P-cadherin antibody) (scFv, V domains shown)
VH: QVQLQQPGTELVKPGASVKLSCKASGYTFTRYWINWVKQRPQGGLEWIGNIYPGSNITNYNEKFKNKATLTVDTSSNTAYMQLSSLTSDDSAVYYCAREGIYDGYFPLFPYWGQGTLVTVSA
VL: ENVLTQSPAIMAASPGEKVTMTCSASSSVSSGNFHWYQQKPGTSPKLWIYRTSNLASGVPARFSGSGSGTSYSLTISSMEAEDAATYYCQQWSGYPWTFGGGTKLEIK
notes: VH of TSP11; flexible (Gly4-Ser)3 peptide linker between VH and VL; VL of TSP11; Construct pelB-VH-GS-linker-VL-His6 in pRA2

binding result [6]: no binding
Kd [7]: ~10 nM
B2: TSP11 (anti-human P-cadherin antibody, scFv format) (scFv, V domains shown)
VH: B1 VH
VL: B1 VL
notes: VH of TSP11 (antibody from mice immunised with human P-cadherin EC1-EC5); flexible (Gly4-Ser)3 peptide linker; VL of TSP11; Construct pelB-VH-GS-linker-VL-His6 in pRA2; not shown: His6, C-terminal, kept

Kd [8]: 63 nM
koff [8]: 0.03 s⁻¹
kon [8]: 480000 M⁻¹ s⁻¹
Kd [9]: 0.24 nM
koff [9]: 0.00015 s⁻¹
kon [9]: 620000 M⁻¹ s⁻¹
stoichiometry N [1]: 0.74
stoichiometry N [3]: 0.71
Kd [4]: 8.7 nM
koff [4]: 0.026 s⁻¹
kon [4]: 3e+06 M⁻¹ s⁻¹
binding result [5]: no binding
B3: TSP7 single-chain Fv (anti-human P-cadherin antibody) (scFv, V domains shown)
VH: B4 VH with R77S
VL: B4 VL
notes: VH of TSP7; flexible (Gly4-Ser)3 peptide linker between VH and VL; VL of TSP7; Construct pelB-VH-GS-linker-VL-His6 in pRA2; Residue numbers run through the whole scFv (Asp229 and Arg234 lie in the VL); also called TSP7 (WT); TSP7 WT; not shown: His6, C-terminal, kept
